This note sets out measurements from PMC12748864, “Potent neutralization by antibodies targeting the MPXV A28 protein” (Nature Communications, 2025).

What all share (settings): both partners purified
Test [1] has as its target MPXV A28 (OPG153), residues 2-361 (Monkeypox virus, template GenBank …, UniProt A0A7H0DNC4). Description: ELISA.
The target in test [2] is T1, VACV A26 (OPG153), residues 2-361 (Vaccinia virus strain IHDW, template …, UniProt P24758, strain).
T1 construct: also called VACV homolog of A28
Description: ELISA.

In test [3] the target is T2, VACV A26 head domain (amino acids 1-397), strain Western Reserve (Vaccinia virus (strain Western Reserve), UniProt P24758).
T2 construct: also called residues 1-397 of A26
Kind of test: crystal structure.

Sequence of MPXV A28 (OPG153), residues 2-361 (A0A7H0DNC4 whole entry, looked up, the tested form may be a part): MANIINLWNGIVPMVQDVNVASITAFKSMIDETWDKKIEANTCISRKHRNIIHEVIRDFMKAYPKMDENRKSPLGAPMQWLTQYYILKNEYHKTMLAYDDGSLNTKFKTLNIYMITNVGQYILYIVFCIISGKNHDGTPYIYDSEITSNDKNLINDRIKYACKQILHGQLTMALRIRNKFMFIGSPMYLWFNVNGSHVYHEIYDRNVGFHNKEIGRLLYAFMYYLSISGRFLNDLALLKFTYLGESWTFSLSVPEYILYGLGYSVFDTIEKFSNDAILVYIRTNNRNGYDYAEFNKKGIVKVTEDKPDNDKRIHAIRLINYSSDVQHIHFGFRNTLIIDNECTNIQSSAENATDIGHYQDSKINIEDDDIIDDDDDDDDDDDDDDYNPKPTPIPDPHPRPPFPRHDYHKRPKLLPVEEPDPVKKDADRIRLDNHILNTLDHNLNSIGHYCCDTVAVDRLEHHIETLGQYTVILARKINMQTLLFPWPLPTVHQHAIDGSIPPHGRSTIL

B1: mAb 10M2146 (human IgG1, anti-A28) (antibody, V domains shown)
VH: EVQLVQSGAEVKKPGESLKISCKGSGYSFTTHWIGWVRQMPGEGLEWLGIIYPGDSETKYSPSFQGQVTISVDKSINTAYLHWSSLKASDTAMYFCARRPKNYYDASGYYNWLDPWGQGTLVTVSS
VL: EIQMTQSPSTLSASVGDRVTITCRASQSLSTWLAWYQQKPGKAPKLLIYKASILESGVPSRFSASGSGTEFTLTISGLQPDDFATYYCQQYNSYLGAFGQGTKVEIK
As for B1, the binding result in test [1] and in test [2] was “binds” throughout.

B2: Fab 10M2146 (Fab, V domains shown)
VH: B1 VH
VL: B1 VL
notes: also called 10M2146 F(ab)
B2: the binding result in test [3] was “binds”.

B3: Germline 1 (germline-reverted 10M2146 / 10M2154) (antibody, V domains shown)
VH: EVQLVQSGAEVKKPGESLKISCKGSGYSFTSYWIGWVRQMPGKGLEWMGIIYPGDSDTRYSPSFQGQVTISADKSISTAYLQWSSLKASDTAMYYCARRPKYYYDSSGYYNWLDPWGQGTLVTVSS
VL: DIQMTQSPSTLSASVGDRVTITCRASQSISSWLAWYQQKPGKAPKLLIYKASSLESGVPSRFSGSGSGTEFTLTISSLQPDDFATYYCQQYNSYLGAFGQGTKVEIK
Take B3: the binding result in test [1] and in test [2] was “binds” each time.
